Data reported in US20120316071A1 (published 2012).

What was measured:
[1] = target: T1, rHuman ErbB2/Fc Chimera, CF (human, UniProt P04626 23-652); experiment: ECL Multispot (MSD) assay; antigen spotted on plate, Fab in solution;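 further: fab bound 1 h at 20 °C, detected by TAG-labelled antibody electrochemiluminescence, signal relative to each well's blank, ratio of 4 or more marks a hit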
T1 construct: Bought from R&D Systems; also called human epidermal growth factor 2 receptor; not shown: Fc of the bought chimera

[2] = target: T2, rHuman CD44/Fc Chimera, CF (human, UniProt P16070 21-220); experiment: as above
T2 construct: Bought from R&D Systems; not shown: Fc of the bought chimera

[3] = target: T3, rHuman EGF R/Fc Chimera, CF (human, UniProt P00533 25-645); experiment: as above
T3 construct: Bought from R&D Systems; also called epidermal growth factor receptor; not shown: Fc of the bought chimera

[4] = target: T4, rHuman HGF R/c-MET/Fc Chimera, CF (human, UniProt P08581 25-932); experiment: as above
T4 construct: Bought from R&D Systems; also called HGF R/Fc; hepatocyte growth factor receptor; not shown: Fc of the bought chimera
T4 sequence (P08581 25-932, change not shown): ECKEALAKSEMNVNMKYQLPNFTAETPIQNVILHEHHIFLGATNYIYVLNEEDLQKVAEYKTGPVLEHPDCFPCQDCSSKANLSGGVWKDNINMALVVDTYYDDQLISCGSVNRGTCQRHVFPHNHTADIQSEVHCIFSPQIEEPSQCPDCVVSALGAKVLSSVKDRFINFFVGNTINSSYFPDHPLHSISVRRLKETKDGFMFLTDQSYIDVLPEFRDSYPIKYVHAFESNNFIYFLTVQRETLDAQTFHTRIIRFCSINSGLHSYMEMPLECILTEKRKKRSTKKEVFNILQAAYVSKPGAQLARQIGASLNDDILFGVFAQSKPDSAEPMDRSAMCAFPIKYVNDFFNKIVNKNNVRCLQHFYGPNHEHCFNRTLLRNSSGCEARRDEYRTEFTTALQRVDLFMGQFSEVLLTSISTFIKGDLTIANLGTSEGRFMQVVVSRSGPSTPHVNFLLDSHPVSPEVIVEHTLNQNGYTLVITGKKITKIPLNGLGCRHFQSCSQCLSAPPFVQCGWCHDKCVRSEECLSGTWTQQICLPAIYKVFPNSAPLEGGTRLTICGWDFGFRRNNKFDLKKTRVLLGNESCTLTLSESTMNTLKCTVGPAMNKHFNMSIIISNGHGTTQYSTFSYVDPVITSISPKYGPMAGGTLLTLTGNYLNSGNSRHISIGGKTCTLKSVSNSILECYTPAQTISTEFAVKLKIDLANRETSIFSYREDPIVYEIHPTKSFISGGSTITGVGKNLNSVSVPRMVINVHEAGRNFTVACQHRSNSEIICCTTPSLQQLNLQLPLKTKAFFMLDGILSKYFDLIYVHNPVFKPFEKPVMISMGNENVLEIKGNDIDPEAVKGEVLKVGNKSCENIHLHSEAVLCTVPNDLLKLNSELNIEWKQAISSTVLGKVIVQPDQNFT

[5] = target: T5, rHuman Erythropoietin R/Fc Chimera, CF (human, UniProt P19235 25-250); experiment: as above
T5 construct: Bought from R&D Systems; also called EPO R; EPO R/Fc; not shown: Fc of the bought chimera
T5 sequence (looked up): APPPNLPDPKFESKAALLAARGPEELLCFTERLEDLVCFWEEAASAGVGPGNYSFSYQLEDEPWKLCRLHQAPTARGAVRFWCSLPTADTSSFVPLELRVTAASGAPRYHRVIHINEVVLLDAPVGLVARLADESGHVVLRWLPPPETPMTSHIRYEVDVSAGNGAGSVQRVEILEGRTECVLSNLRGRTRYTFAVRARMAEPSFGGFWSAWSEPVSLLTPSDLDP

[6] = target: T6, rHuman IGF-1 sR, (IGF-1 sR), CF (human, UniProt P08069 31-932); experiment: as above
T6 construct: Bought from R&D Systems; also called insulin-like growth factor-1 soluble receptor

[7] = target: T7, rHuman Notch-1/Fc Chimera, CF (human, UniProt P46531 19-526); experiment: as above
T7 construct: Bought from R&D Systems; not shown: Fc of the bought chimera

[8] = target: T8, Recombinant Human DLL4 (human, UniProt Q9NR61 27-524); experiment: as above
T8 construct: Bought from R&D Systems; also called delta-like protein 4; rHuman DLL4

[9] = target: T9, rHuman P-Cadherin/Fc Chimera, CF (human, UniProt P22223 108-654); experiment: as above
T9 construct: Bought from R&D Systems; not shown: Fc of the bought chimera

[10] = target: T10, Recombinant Human DLL4 (R&D Systems Cat#1506-D4/CF) (human, UniProt Q9NR61 27-524); experiment: ECL multispot (MSD) binding assay, antigen spotted on plate;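 further: purified Fab incubated 1 h at 20 °C on antigen spots, detected with TAG-labelled antibody, electrochemiluminescence compared with each well's blank, signal-to-blank ratio ≥4 counted as hit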
T10 construct: Bought recombinant protein; also called delta-like protein 4; rHuman DLL4

[11] = target: T11, rHuman CD44/Fc Chimera, CF (R&D Systems Cat#3660-CD) (human, UniProt P16070 21-220); experiment: as above
T11 construct: Bought recombinant protein

[12] = target: T12, rHuman ErbB2/Fc Chimera, CF (R&D Systems Cat#1129-ER) (human, UniProt P04626 23-652); experiment: as above
T12 construct: Bought recombinant protein; also called human epidermal growth factor 2 receptor

[13] = target: T13, rHuman Notch-1/Fc Chimera, CF (R&D Systems Cat#3647-TK) (human, UniProt P46531 19-526); experiment: as above
T13 construct: Bought recombinant protein

[14] = target: T14, rHuman EGF R/Fc Chimera, CF (R&D Systems Cat#344-ER) (human, UniProt P00533 25-645); experiment: as above
T14 construct: Bought recombinant protein; also called epidermal growth factor receptor

[15] = target: T15, rHuman HGF R/c-MET/Fc Chimera, CF (R&D Systems Cat#358-MT/CF) (human, UniProt P08581 25-932); experiment: as above
T15 construct: Bought recombinant protein; also called HGF R/Fc; hepatocyte growth factor receptor
T15 sequence (P08581 25-932, change not shown): as the sequence (P08581 25-932, change not shown) above

[16] = target: T16, rHuman Erythropoietin R/Fc Chimera, CF (R&D Systems Cat#963-ER) (human, UniProt P19235 25-250); experiment: as above
T16 construct: Bought recombinant protein; also called EPO R; EPO R/Fc
T16 sequence (looked up): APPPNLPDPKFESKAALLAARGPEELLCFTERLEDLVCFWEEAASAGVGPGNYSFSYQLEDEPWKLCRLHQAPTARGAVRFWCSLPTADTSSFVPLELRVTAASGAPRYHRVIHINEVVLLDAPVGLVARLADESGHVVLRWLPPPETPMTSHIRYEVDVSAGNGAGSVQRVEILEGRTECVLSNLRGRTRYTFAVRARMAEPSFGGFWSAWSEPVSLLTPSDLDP

[17] = target: T17, rHuman IGF-1 sR, (IGF-1 sR), CF (R&D Systems Cat#391-GR) (human, UniProt P08069 31-932); experiment: as above
T17 construct: Bought recombinant soluble receptor; also called insulin-like growth factor-1 soluble receptor

[18] = target: T18, rHuman P-Cadherin/Fc Chimera, CF (R&D Systems Cat#861-PC) (human, UniProt P22223 108-654); experiment: as above
T18 construct: Bought recombinant protein

Binder	ECL signal [1]	ECL signal [2]	ECL signal [3]	ECL signal [4]	ECL signal [5]	ECL signal [6]	ECL signal [7]	ECL signal [8]	ECL signal [9]	ECL signal [10]	ECL signal [11]	ECL signal [12]	ECL signal [13]	ECL signal [14]	ECL signal [15]	ECL signal [16]	ECL signal [17]	ECL signal [18]
Fab VH1-46_IGHD6-6*01_IGHJ1*01 S102A/S103P/S104F/H111F (APFF) & L6_IGKJ1*01 S28V (Fab, V domains shown, Fab made in E. coli; the variable domains were cloned into Plasmid A (CH1, His and Flag tags) and Plasmid C (kappa CL); also called APFF / S28V) VH: QVQLVQSGAEVKKPGASVKVSCKASGYTFTSYYMHWVRQAPGQGLEWMGIINPSGGSTSYAQKFQGRVTMTRDTSTSTVYMELSSLRSEDTAVYYCAREEYAPFSAEYFQFWGQGTLVTVSS VL: EIVLTQSPATLSLSPGERATLSCRASQVVSSYLAWYQQKPGQAPRLLIYDASNRATGIPARFSGSGSGTDFTLTISSLEPEDFAVYYCQQRSNWPPWTFGQGTKVEIKR	231	380	327	338	446	284	289	83100	344	–	–	–	–	–	–	–	–	–
Fab VH1-46_IGHD6-6*01_IGHJ1*01 S102A/S103P/S104F/H111F (APFF) & L6_IGKJ1*01 S31M (Fab, V domains shown, Tested as Fab (CH1 with His6/Flag tags, kappa CL) made in E. coli; also called APFF / S31M) VH: QVQLVQSGAEVKKPGASVKVSCKASGYTFTSYYMHWVRQAPGQGLEWMGIINPSGGSTSYAQKFQGRVTMTRDTSTSTVYMELSSLRSEDTAVYYCAREEYAPFSAEYFQFWGQGTLVTVSS VL: EIVLTQSPATLSLSPGERATLSCRASQSVSMYLAWYQQKPGQAPRLLIYDASNRATGIPARFSGSGSGTDFTLTISSLEPEDFAVYYCQQRSNWPPWTFGQGTKVEIKR	–	–	–	–	–	–	–	–	–	167000	488	352	474	380	293	573	445	510
Fab VH1-46_IGHD6-6*01_IGHJ1*01 S102A/S103P/S104F/H111F (APFF) & L6_IGKJ1*01 S31L (Fab, V domains shown, Tested as Fab (CH1 with His6/Flag tags, kappa CL) made in E. coli; also called APFF / S31L) VH: QVQLVQSGAEVKKPGASVKVSCKASGYTFTSYYMHWVRQAPGQGLEWMGIINPSGGSTSYAQKFQGRVTMTRDTSTSTVYMELSSLRSEDTAVYYCAREEYAPFSAEYFQFWGQGTLVTVSS VL: EIVLTQSPATLSLSPGERATLSCRASQSVSLYLAWYQQKPGQAPRLLIYDASNRATGIPARFSGSGSGTDFTLTISSLEPEDFAVYYCQQRSNWPPWTFGQGTKVEIKR	–	–	–	–	–	–	–	–	–	155000	371	288	365	375	319	427	405	346
Fab VH1-46_IGHD6-6*01_IGHJ1*01 S102A/S103P/S104F/H111F (APFF) & L6_IGKJ1*01 S31P (Fab, V domains shown, Tested as Fab (CH1 with His6/Flag tags, kappa CL) made in E. coli; also called APFF / S31P) VH: QVQLVQSGAEVKKPGASVKVSCKASGYTFTSYYMHWVRQAPGQGLEWMGIINPSGGSTSYAQKFQGRVTMTRDTSTSTVYMELSSLRSEDTAVYYCAREEYAPFSAEYFQFWGQGTLVTVSS VL: EIVLTQSPATLSLSPGERATLSCRASQSVSPYLAWYQQKPGQAPRLLIYDASNRATGIPARFSGSGSGTDFTLTISSLEPEDFAVYYCQQRSNWPPWTFGQGTKVEIKR	–	–	–	–	–	–	–	–	–	53300	466	372	461	488	431	594	404	493
Fab VH1-46_IGHD6-6*01_IGHJ1*01 S102A/S103P/S104F/H111F (APFF) & L6_IGKJ1*01 S31H (Fab, V domains shown, Tested as Fab (CH1 with His6/Flag tags, kappa CL) made in E. coli; also called APFF / S31H) VH: QVQLVQSGAEVKKPGASVKVSCKASGYTFTSYYMHWVRQAPGQGLEWMGIINPSGGSTSYAQKFQGRVTMTRDTSTSTVYMELSSLRSEDTAVYYCAREEYAPFSAEYFQFWGQGTLVTVSS VL: EIVLTQSPATLSLSPGERATLSCRASQSVSHYLAWYQQKPGQAPRLLIYDASNRATGIPARFSGSGSGTDFTLTISSLEPEDFAVYYCQQRSNWPPWTFGQGTKVEIKR	–	–	–	–	–	–	–	–	–	221000	426	307	421	373	352	504	350	480
Fab VH1-46_IGHD6-6*01_IGHJ1*01 S102A/S103P/S104F/H111F (APFF) & L6_IGKJ1*01 S31D (Fab, V domains shown, Tested as Fab (CH1 with His6/Flag tags, kappa CL) made in E. coli; also called APFF / S31D) VH: QVQLVQSGAEVKKPGASVKVSCKASGYTFTSYYMHWVRQAPGQGLEWMGIINPSGGSTSYAQKFQGRVTMTRDTSTSTVYMELSSLRSEDTAVYYCAREEYAPFSAEYFQFWGQGTLVTVSS VL: EIVLTQSPATLSLSPGERATLSCRASQSVSDYLAWYQQKPGQAPRLLIYDASNRATGIPARFSGSGSGTDFTLTISSLEPEDFAVYYCQQRSNWPPWTFGQGTKVEIKR	–	–	–	–	–	–	–	–	–	154000	471	479	510	438	429	596	407	451
Fab VH1-46_IGHD6-6*01_IGHJ1*01 S102A/S103P/S104F/H111F (APFF) & L6_IGKJ1*01 S31I (Fab, V domains shown, Tested as Fab (CH1 with His6/Flag tags, kappa CL) made in E. coli; also called APFF / S31I) VH: QVQLVQSGAEVKKPGASVKVSCKASGYTFTSYYMHWVRQAPGQGLEWMGIINPSGGSTSYAQKFQGRVTMTRDTSTSTVYMELSSLRSEDTAVYYCAREEYAPFSAEYFQFWGQGTLVTVSS VL: EIVLTQSPATLSLSPGERATLSCRASQSVSIYLAWYQQKPGQAPRLLIYDASNRATGIPARFSGSGSGTDFTLTISSLEPEDFAVYYCQQRSNWPPWTFGQGTKVEIKR	–	–	–	–	–	–	–	–	–	174000	506	222	421	363	303	500	365	444
Fab VH1-46_IGHD6-6*01_IGHJ1*01 S102A/S103P/S104F/H111F (APFF) & L6_IGKJ1*01 S31V (Fab, V domains shown, Tested as Fab (CH1 with His6/Flag tags, kappa CL) made in E. coli; also called APFF / S31V) VH: QVQLVQSGAEVKKPGASVKVSCKASGYTFTSYYMHWVRQAPGQGLEWMGIINPSGGSTSYAQKFQGRVTMTRDTSTSTVYMELSSLRSEDTAVYYCAREEYAPFSAEYFQFWGQGTLVTVSS VL: EIVLTQSPATLSLSPGERATLSCRASQSVSVYLAWYQQKPGQAPRLLIYDASNRATGIPARFSGSGSGTDFTLTISSLEPEDFAVYYCQQRSNWPPWTFGQGTKVEIKR	–	–	–	–	–	–	–	–	–	176000	384	300	374	363	288	509	335	360
Fab VH1-46_IGHD6-6*01_IGHJ1*01 S102A/S103P/S104F/H111F (APFF) & L6_IGKJ1*01 S31F (Fab, V domains shown, Tested as Fab (CH1 with His6/Flag tags, kappa CL) made in E. coli; also called APFF / S31F) VH: QVQLVQSGAEVKKPGASVKVSCKASGYTFTSYYMHWVRQAPGQGLEWMGIINPSGGSTSYAQKFQGRVTMTRDTSTSTVYMELSSLRSEDTAVYYCAREEYAPFSAEYFQFWGQGTLVTVSS VL: EIVLTQSPATLSLSPGERATLSCRASQSVSFYLAWYQQKPGQAPRLLIYDASNRATGIPARFSGSGSGTDFTLTISSLEPEDFAVYYCQQRSNWPPWTFGQGTKVEIKR	–	–	–	–	–	–	–	–	–	189000	256	295	349	342	280	599	267	369
